Source: patent US20230140293A1

Experiments:
Assay in all cases: cell-based or functional assay
[1] = target: HIV-1 Env 426c, Env-pseudotyped virus produced in 293T cells (HIV-1 clade C strain 426c)
[2] = target: CH0505TF.G458Y Env, Env-pseudotyped virus produced in 293T cells (HIV-1)
[3] = target: CH0505.w4.3 Env, Env-pseudotyped virus produced in 293T cells (HIV-1)
[4] = target: HIV-1 clade C strain 426c Env on Env-pseudotyped virus produced in 293T cells (HIV-1)
[5] = target: HIV-1 426c.SM (N276D) Env on Env-pseudotyped virus produced in 293s/GnTI-/- cells (Man5-enrichment) (HIV-1)
[6] = target: HIV-1 426c.TM (N276D/N460D/N463D) Env on Env-pseudotyped virus produced in 293T cells (HIV-1)
[7] = target: HIV-1 Env 426c.TM (N276D.N460D.N463D), Env-pseudotyped virus produced in 293S GnTI- cells (Man5-enriched) (HIV-1 clade C strain 426c)
[8] = target: CH0505TF.gly3.197 Env, Env-pseudotyped virus produced in 293T cells (HIV-1)
[9] = target: HIV-1 Env 426c.DM (N460D.N463D), Env-pseudotyped virus produced in 293T cells (HIV-1 clade C strain 426c)
[10] = target: HIV-1 426c.SM (N276D) Env on Env-pseudotyped virus produced in 293T cells (HIV-1)
[11] = target: CH0505TF.gly4 Env, Env-pseudotyped virus produced in 293T cells (HIV-1)
[12] = target: HIV-1 426c.DM (N460D/N463D) Env on Env-pseudotyped virus produced in 293s/GnTI-/- cells (Man5-enrichment) (HIV-1)
[13] = target: CH0505TF Env, Env-pseudotyped virus produced in 293T cells (HIV-1)
[14] = target: CH0505TF.G458Y Env, Env-pseudotyped virus produced in 293S GnTI- cells (Man5-enriched) (HIV-1)
[15] = target: CH0505TF.gly3.276 Env, Env-pseudotyped virus produced in 293T cells (HIV-1)
[16] = target: HIV-1 Env 426c.TM4 (S278R.G471S.N460D.N463D), Env-pseudotyped virus produced in 293T cells (HIV-1 clade C strain 426c)
[17] = target: HIV-1 Env 426c.TM (N276D.N460D.N463D), Env-pseudotyped virus produced in 293T cells (HIV-1 clade C strain 426c)
[18] = target: CH0505TF.gly3.461 Env, Env-pseudotyped virus produced in 293S GnTI- cells (Man5-enriched) (HIV-1)
[19] = target: CH0505TF.gly3.461 Env, Env-pseudotyped virus produced in 293T cells (HIV-1)
[20] = target: HIV-1 Env 426c, Env-pseudotyped virus produced in 293S GnTI- cells (Man5-enriched) (HIV-1 clade C strain 426c)
[21] = target: HIV-1 426c.TM (N276D/N460D/N463D) Env on Env-pseudotyped virus produced in 293s/GnTI-/- cells (Man5-enrichment) (HIV-1)
[22] = target: CH0505TF.gly4 Env, Env-pseudotyped virus produced in 293S GnTI- cells (Man5-enriched) (HIV-1)
[23] = target: HIV-1 426c.DM (N460D/N463D) Env on Env-pseudotyped virus produced in 293T cells (HIV-1)
[24] = target: HIV-1 Env 426c.TM4 (S278R.G471S.N460D.N463D), Env-pseudotyped virus produced in 293S GnTI- cells (Man5-enriched) (HIV-1 clade C strain 426c)
[25] = target: CH0505TF Env, Env-pseudotyped virus produced in 293S GnTI- cells (Man5-enriched) (HIV-1)
[26] = target: CH0505TF.gly3.276 Env, Env-pseudotyped virus produced in 293S GnTI- cells (Man5-enriched) (HIV-1)
[27] = target: CH0505TF.gly3.197 Env, Env-pseudotyped virus produced in 293S GnTI- cells (Man5-enriched) (HIV-1)
[28] = target: HIV-1 Env 426c.SM (N276D), Env-pseudotyped virus produced in 293S GnTI- cells (Man5-enriched) (HIV-1 clade C strain 426c)
[29] = target: HIV-1 Env 426c.SM (N276D), Env-pseudotyped virus produced in 293T cells (HIV-1 clade C strain 426c)
[30] = target: HIV-1 clade C strain 426c Env on Env-pseudotyped virus produced in 293s/GnTI-/- cells (Man5-enrichment) (HIV-1)
[31] = target: HIV-1 Env 426c.DM (N460D.N463D), Env-pseudotyped virus produced in 293S GnTI- cells (Man5-enriched) (HIV-1 clade C strain 426c)

Substance | IC50 (µg/ml) in TZM-bl [1] | IC50 (µg/ml) in TZM-bl [2] | IC50 (µg/ml) in TZM-bl [3] | ID50/IC50 in TZM-bl [4] | ID50/IC50 in TZM-bl [5] | ID50/IC50 in TZM-bl [6] | IC50 (µg/ml) in TZM-bl [7] | IC50 (µg/ml) in TZM-bl [8] | IC50 (µg/ml) in TZM-bl [9] | ID50/IC50 in TZM-bl [10] | IC50 (µg/ml) in TZM-bl [11] | ID50/IC50 in TZM-bl [12] | IC50 (µg/ml) in TZM-bl [13] | IC50 (µg/ml) in TZM-bl [14] | IC50 (µg/ml) in TZM-bl [15] | IC50 (µg/ml) in TZM-bl [16] | IC50 (µg/ml) in TZM-bl [17] | IC50 (µg/ml) in TZM-bl [18] | IC50 (µg/ml) in TZM-bl [19] | IC50 (µg/ml) in TZM-bl [20] | other results
PG16 (antibody) | > 5 µg/mL | 0.03 µg/mL | 0.03 µg/mL | > 5 µg/mL | > 5 µg/mL | > 5 µg/mL | > 5 µg/mL | 0.05 µg/mL | > 5 µg/mL | > 5 µg/mL | 0.1 µg/mL | > 5 µg/mL | 0.09 µg/mL | 0.01 µg/mL | 0.1 µg/mL | > 5 µg/mL | > 5 µg/mL | 0.02 µg/mL | 0.1 µg/mL | > 5 µg/mL | ID50/IC50 in TZM-bl [21]: > 5 µg/mL; IC50 (µg/ml) in TZM-bl [22]: 0.02 µg/mL; ID50/IC50 in TZM-bl [23]: > 5 µg/mL; IC50 (µg/ml) in TZM-bl [24]: > 5 µg/mL; IC50 (µg/ml) in TZM-bl [25]: 0.08 µg/mL; IC50 (µg/ml) in TZM-bl [26]: 0.02 µg/mL; IC50 (µg/ml) in TZM-bl [27]: 0.03 µg/mL; IC50 (µg/ml) in TZM-bl [28]: > 5 µg/mL; IC50 (µg/ml) in TZM-bl [29]: > 5 µg/mL; ID50/IC50 in TZM-bl [30]: > 5 µg/mL; IC50 (µg/ml) in TZM-bl [31]: > 5 µg/mL
10-1074 (antibody) | 0.05 µg/mL | > 25 µg/mL | > 25 µg/mL | 0.05 µg/mL | 0.04 µg/mL | 0.16 µg/mL | 0.03 µg/mL | > 25 µg/mL | 0.1 µg/mL | 0.12 µg/mL | > 25 µg/mL | 0.03 µg/mL | > 25 µg/mL | > 25 µg/mL | > 25 µg/mL | 0.06 µg/mL | 0.16 µg/mL | > 25 µg/mL | > 25 µg/mL | 0.03 µg/mL | ID50/IC50 in TZM-bl [21]: 0.03 µg/mL; IC50 (µg/ml) in TZM-bl [22]: > 25 µg/mL; ID50/IC50 in TZM-bl [23]: 0.1 µg/mL; IC50 (µg/ml) in TZM-bl [24]: 0.02 µg/mL; IC50 (µg/ml) in TZM-bl [25]: > 25 µg/mL; IC50 (µg/ml) in TZM-bl [26]: > 25 µg/mL; IC50 (µg/ml) in TZM-bl [27]: > 25 µg/mL; IC50 (µg/ml) in TZM-bl [28]: 0.04 µg/mL; IC50 (µg/ml) in TZM-bl [29]: 0.12 µg/mL; ID50/IC50 in TZM-bl [30]: 0.03 µg/mL; IC50 (µg/ml) in TZM-bl [31]: 0.03 µg/mL
PG9 (antibody) | > 5 µg/mL | 0.1 µg/mL | 1.8 µg/mL | > 5 µg/mL | > 5 µg/mL | > 5 µg/mL | > 5 µg/mL | 0.24 µg/mL | > 5 µg/mL | > 5 µg/mL | 0.21 µg/mL | > 5 µg/mL | 0.19 µg/mL | 0.04 µg/mL | 0.17 µg/mL | > 5 µg/mL | > 5 µg/mL | 0.05 µg/mL | 0.22 µg/mL | > 5 µg/mL | ID50/IC50 in TZM-bl [21]: > 5 µg/mL; IC50 (µg/ml) in TZM-bl [22]: 0.02 µg/mL; ID50/IC50 in TZM-bl [23]: > 5 µg/mL; IC50 (µg/ml) in TZM-bl [24]: > 5 µg/mL; IC50 (µg/ml) in TZM-bl [25]: 0.11 µg/mL; IC50 (µg/ml) in TZM-bl [26]: 0.04 µg/mL; IC50 (µg/ml) in TZM-bl [27]: 0.06 µg/mL; IC50 (µg/ml) in TZM-bl [28]: > 5 µg/mL; IC50 (µg/ml) in TZM-bl [29]: > 5 µg/mL; ID50/IC50 in TZM-bl [30]: > 5 µg/mL; IC50 (µg/ml) in TZM-bl [31]: > 5 µg/mL
CH01 (antibody) | > 25 µg/mL | 1 µg/mL | > 20 µg/mL | > 25 µg/mL | > 25 µg/mL | > 25 µg/mL | > 25 µg/mL | 3.8 µg/mL | > 25 µg/mL | > 25 µg/mL | 8.8 µg/mL | > 25 µg/mL | 4.1 µg/mL | 0.1 µg/mL | 5.7 µg/mL | > 25 µg/mL | > 25 µg/mL | 0.09 µg/mL | 7.7 µg/mL | > 25 µg/mL | ID50/IC50 in TZM-bl [21]: > 25 µg/mL; IC50 (µg/ml) in TZM-bl [22]: 0.1 µg/mL; ID50/IC50 in TZM-bl [23]: > 25 µg/mL; IC50 (µg/ml) in TZM-bl [24]: > 25 µg/mL; IC50 (µg/ml) in TZM-bl [25]: 0.8 µg/mL; IC50 (µg/ml) in TZM-bl [26]: 1 µg/mL; IC50 (µg/ml) in TZM-bl [27]: 0.22 µg/mL; IC50 (µg/ml) in TZM-bl [28]: > 25 µg/mL; IC50 (µg/ml) in TZM-bl [29]: > 25 µg/mL; ID50/IC50 in TZM-bl [30]: > 25 µg/mL; IC50 (µg/ml) in TZM-bl [31]: > 25 µg/mL
